From US20150299264A1
No end group written: not given here.

Target: 40 non-kinase enzyme assays, including phosphatases and proteases
Test: cell-based or functional assay
Settings: scale: % inhibition of activity at 100 µM MMI-0100

B1: MMI-0100 peptide (…; SEQ ID NO: 1) (peptide)
peptide: YARAAARQARAKALARQLGVAA
modifications: also: acetate salt
B1 was tested, and the inhibition of activity in enzyme assays in the presence and absence of 100 µM MMI-0100 was < 50.
